Paper PMC10397247
Values belong to the binder of their own block, whether it stands above or below them.

Key:
[1] = target: T1, P11A-bS; test: two-hybrid library CCNG1;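 further: natural log of median RNA to DNA barcode read ratio; higher means stronger binding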
T1 chain: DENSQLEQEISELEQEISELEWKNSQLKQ

[2] = target: T2, P12A-bS; test: two-hybrid library CCNG1;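 further: natural log of median RNA to DNA barcode read ratio; higher means stronger binding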
T2 chain: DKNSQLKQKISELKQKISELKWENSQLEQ

[3] = target: T3, P1A-bS; test: two-hybrid library CCNG1;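 further: natural log of median RNA to DNA barcode read ratio; higher means stronger binding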
T3 chain: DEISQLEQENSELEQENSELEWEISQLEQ

[4] = target: T4, P2A-bS; test: two-hybrid library CCNG1;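 further: natural log of median RNA to DNA barcode read ratio; higher means stronger binding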
T4 chain: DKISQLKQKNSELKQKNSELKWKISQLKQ

[5] = target: T5, P3A-bS; test: two-hybrid library CCNG1
T5 chain: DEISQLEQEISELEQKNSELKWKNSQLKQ

[6] = target: T6, P4A-bS; test: two-hybrid library CCNG1
T6 chain: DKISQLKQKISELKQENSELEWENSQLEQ

[7] = target: T7, P5A-bS; test: two-hybrid library CCNG1
T7 chain: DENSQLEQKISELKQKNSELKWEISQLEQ

[8] = target: T8, P6A-bS; test: two-hybrid library CCNG1
T8 chain: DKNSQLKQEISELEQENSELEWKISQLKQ

[9] = target: T9, P7A-bS; test: two-hybrid library CCNG1
T9 chain: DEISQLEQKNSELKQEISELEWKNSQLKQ

[10] = target: T10, P8A-bS; test: two-hybrid library CCNG1
T10 chain: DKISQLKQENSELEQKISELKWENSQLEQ

[11] = target: T11, P9A-bS; test: two-hybrid library CCNG1
T11 chain: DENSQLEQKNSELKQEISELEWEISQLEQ

[12] = target: T12, 4H1359-bN; test: two-hybrid library CCNG1
T12 chain: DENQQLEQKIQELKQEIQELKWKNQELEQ

[13] = target: T13, 4H1393-bN; test: two-hybrid library CCNG1
T13 chain: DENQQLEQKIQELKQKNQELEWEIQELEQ

[14] = target: T14, 4H1449-bN; test: two-hybrid library CCNG1
T14 chain: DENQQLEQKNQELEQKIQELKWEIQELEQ

[15] = target: T15, 4H1629-bN; test: two-hybrid library CCNG1
T15 chain: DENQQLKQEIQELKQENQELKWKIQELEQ

[16] = target: T16, 4H1710-bN; test: two-hybrid library CCNG1
T16 chain: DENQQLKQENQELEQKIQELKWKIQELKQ

[17] = target: T17, 4H1804-bN; test: two-hybrid library CCNG1
T17 chain: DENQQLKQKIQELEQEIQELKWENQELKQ

[18] = target: T18, 4H1985-bN; test: two-hybrid library CCNG1
T18 chain: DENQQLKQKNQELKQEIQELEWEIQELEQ

[19] = target: T19, 4H3129-bN; test: two-hybrid library CCNG1
T19 chain: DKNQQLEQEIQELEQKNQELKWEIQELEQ

[20] = target: T20, 4H3172-bN; test: two-hybrid library CCNG1
T20 chain: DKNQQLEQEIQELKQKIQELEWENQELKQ

[21] = target: T21, 4H3414-bN; test: two-hybrid library CCNG1
T21 chain: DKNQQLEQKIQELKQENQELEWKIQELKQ

[22] = target: T22, 4H3631-bN; test: two-hybrid library CCNG1
T22 chain: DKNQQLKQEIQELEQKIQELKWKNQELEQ

[23] = target: T23, 4H3638-bN; test: two-hybrid library CCNG1
T23 chain: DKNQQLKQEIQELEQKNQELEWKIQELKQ

[24] = target: T24, 4H3817-bN; test: two-hybrid library CCNG1
T24 chain: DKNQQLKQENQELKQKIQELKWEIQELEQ

[25] = target: T25, 4H3974-bN; test: two-hybrid library CCNG1
T25 chain: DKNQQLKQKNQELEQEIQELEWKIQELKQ

[26] = target: T26, 4H56-bN; test: two-hybrid library CCNG1
T26 chain: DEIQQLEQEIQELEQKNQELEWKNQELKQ

[27] = target: T27, 4H570-bN; test: two-hybrid library CCNG1
T27 chain: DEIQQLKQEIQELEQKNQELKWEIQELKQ

[28] = target: T28, 4H584-bN; test: two-hybrid library CCNG1
T28 chain: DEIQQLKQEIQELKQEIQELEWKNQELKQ

[29] = target: T29, 4H619-bN; test: two-hybrid library CCNG1
T29 chain: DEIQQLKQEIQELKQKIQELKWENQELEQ

[30] = target: T30, 4H850-bN; test: two-hybrid library CCNG1
T30 chain: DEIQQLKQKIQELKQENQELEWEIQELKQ

[31] = target: T31, 4H906-bN; test: two-hybrid library CCNG1
T31 chain: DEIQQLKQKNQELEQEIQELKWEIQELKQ

[32] = target: T32, 4H1650-AA; test: two-hybrid library CCmax
T32 chain: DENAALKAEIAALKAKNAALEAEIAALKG

[33] = target: T33, 4H175-AA; test: two-hybrid library CCmax; conditions: mean of both orientations
T33 chain: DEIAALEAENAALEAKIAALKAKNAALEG

[34] = target: T34, 4H1765-AA; test: two-hybrid library CCmax; conditions: mean of both orientations
T34 chain: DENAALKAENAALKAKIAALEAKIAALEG

[35] = target: T35, 4H1821-AA; test: two-hybrid library CCmax
T35 chain: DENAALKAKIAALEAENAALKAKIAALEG

[36] = target: T36, 4H1828-AA; test: two-hybrid library CCmax; conditions: mean of both orientations
T36 chain: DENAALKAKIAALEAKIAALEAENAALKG

[37] = target: T37, 4H1930-AA; test: two-hybrid library CCmax; conditions: mean of both orientations
T37 chain: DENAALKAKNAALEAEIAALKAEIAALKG

[38] = target: T38, 4H2124-AA; test: two-hybrid library CCmax; conditions: mean of both orientations
T38 chain: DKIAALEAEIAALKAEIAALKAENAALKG

[39] = target: T39, 4H2165-AA; test: two-hybrid library CCmax; conditions: mean of both orientations
T39 chain: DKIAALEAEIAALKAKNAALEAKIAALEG

[40] = target: T40, 4H2253-AA; test: two-hybrid library CCmax; conditions: mean of both orientations
T40 chain: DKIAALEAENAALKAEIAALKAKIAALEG

[41] = target: T41, 4H2330-AA; test: two-hybrid library CCmax; conditions: mean of both orientations
T41 chain: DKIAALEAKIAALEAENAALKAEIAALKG

[42] = target: T42, 4H2343-AA; test: two-hybrid library CCmax; conditions: mean of both orientations
T42 chain: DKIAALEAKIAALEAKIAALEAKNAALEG

[43] = target: T43, 4H2466-AA; test: two-hybrid library CCmax; conditions: mean of both orientations
T43 chain: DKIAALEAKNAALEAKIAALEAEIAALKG

[44] = target: T44, 4H249-AA; test: two-hybrid library CCmax; conditions: mean of both orientations
T44 chain: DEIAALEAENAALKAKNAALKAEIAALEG

[45] = target: T45, 4H2592-AA; test: two-hybrid library CCmax; conditions: mean of both orientations
T45 chain: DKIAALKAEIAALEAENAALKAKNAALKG

[46] = target: T46, 4H2732-AA; test: two-hybrid library CCmax; conditions: mean of both orientations
T46 chain: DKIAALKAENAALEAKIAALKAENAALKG

[47] = target: T47, 4H2774-AA; test: two-hybrid library CCmax; conditions: mean of both orientations
T47 chain: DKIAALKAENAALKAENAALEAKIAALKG

[48] = target: T48, 4H2931-AA; test: two-hybrid library CCmax; conditions: mean of both orientations
T48 chain: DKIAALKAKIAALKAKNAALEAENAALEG

[49] = target: T49, 4H3001-AA; test: two-hybrid library CCmax; conditions: mean of both orientations
T49 chain: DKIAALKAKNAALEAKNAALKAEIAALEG

[50] = target: T50, 4H3015-AA; test: two-hybrid library CCmax; conditions: mean of both orientations
T50 chain: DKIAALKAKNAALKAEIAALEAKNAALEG

[51] = target: T51, 4H3073-AA; test: two-hybrid library CCmax; conditions: mean of both orientations
T51 chain: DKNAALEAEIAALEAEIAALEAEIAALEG

[52] = target: T52, 4H3438-AA; test: two-hybrid library CCmax
T52 chain: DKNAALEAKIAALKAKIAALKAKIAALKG

[53] = target: T53, 4H347-AA; test: two-hybrid library CCmax; conditions: mean of both orientations
T53 chain: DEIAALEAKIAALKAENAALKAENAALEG

[54] = target: T54, 4H406-AA; test: two-hybrid library CCmax; conditions: mean of both orientations
T54 chain: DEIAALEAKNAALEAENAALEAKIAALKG

[55] = target: T55, 4H452-AA; test: two-hybrid library CCmax; conditions: mean of both orientations
T55 chain: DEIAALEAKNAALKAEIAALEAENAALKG

[56] = target: T56, 4H56-AA; test: two-hybrid library CCmax; conditions: mean of both orientations
T56 chain: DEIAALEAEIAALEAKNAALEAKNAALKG

[57] = target: T57, 4H_APH; test: two-hybrid library CCmax; conditions: mean of both orientations
T57 chain: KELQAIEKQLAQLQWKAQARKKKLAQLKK

[58] = target: T58, 4H_BCR; test: two-hybrid library CCmax; conditions: mean of both orientations
T58 chain: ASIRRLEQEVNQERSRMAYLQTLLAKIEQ

[59] = target: 4H_GCN4; test: two-hybrid library CCmax
Sequence of 4H_GCN4 (chain, as listed by the source): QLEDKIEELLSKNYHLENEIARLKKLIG

[60] = target: GCN2_T; test: two-hybrid library CCmax

interaction score [1]: -0.138 | interaction score [2]: -0.0445 | interaction score [3]: -2.5 | interaction score [4]: -0.0157 | interaction score [5]: -0.693 | interaction score [6]: -0.106 | interaction score [7]: -1.76 | interaction score [8]: -1.53 | interaction score [9]: -0.464 | interaction score [10]: -0.395
Binder: DKNSQLKQENSELEQKISELKWKISQLKQ [P10A-bS]

interaction score [2]: -1.48 | interaction score [3]: -0.648 | interaction score [4]: -1.69 | interaction score [5]: -2.43 | interaction score [6]: -1.12 | interaction score [7]: -2.21 | interaction score [8]: -0.87 | interaction score [9]: -0.873 | interaction score [10]: -1.07 | interaction score [11]: -0.676
Binder: DKNSQLKQKISELKQKISELKWENSQLEQ [P12A-bS]

interaction score [12]: -0.688 | interaction score [13]: -0.209 | interaction score [14]: -0.317 | interaction score [15]: -1.24 | interaction score [16]: -0.607 | interaction score [17]: 0.796 | interaction score [18]: -0.294 | interaction score [19]: -0.57 | interaction score [20]: 0.294 | interaction score [21]: -0.131 | interaction score [22]: 0.911 | interaction score [23]: -1.64 | interaction score [24]: -1.14 | interaction score [25]: 1.47 | interaction score [26]: -1.25 | interaction score [27]: -0.803 | interaction score [28]: -0.701 | interaction score [29]: -1.38 | interaction score [30]: -0.294 | interaction score [31]: -1.22
Binder: DENQQLEQKIQELKQEIQELKWKNQELEQ [4H1359-bN]

interaction score [32]: 1.93 | interaction score [33]: -1.43 | interaction score [34]: -1.53 | interaction score [35]: -1.25 | interaction score [36]: -1.48 | interaction score [37]: -1.42 | interaction score [38]: -1.42 | interaction score [39]: -1.3 | interaction score [40]: -1.47 | interaction score [41]: -1.54 | interaction score [42]: -1.44 | interaction score [43]: -1.67 | interaction score [44]: -1.71 | interaction score [45]: -1.61 | interaction score [46]: -0.897 | interaction score [47]: -1.48 | interaction score [48]: -1.59 | interaction score [49]: -1.67 | interaction score [50]: -1.53 | interaction score [51]: -1.16 | interaction score [52]: -1.13 | interaction score [53]: -2.36 | interaction score [54]: -1.61 | interaction score [55]: -1.34 | interaction score [56]: -1.74 | interaction score [57]: -1.42 | interaction score [58]: -1.36 | interaction score [59]: -1.9 | interaction score [60]: -0.999
Binder: DENAALKAEIAALKAKNAALEAEIAALKG [4H1650-AA]

interaction score [1]: -0.865 | interaction score [2]: 2.41 | interaction score [3]: 0.728 | interaction score [4]: -0.288 | interaction score [5]: -0.458 | interaction score [6]: 0.142 | interaction score [7]: -0.458 | interaction score [8]: 0.727 | interaction score [9]: -1.25 | interaction score [10]: 0.714 | interaction score [11]: -0.134
Binder: DENSQLEQEISELEQEISELEWKNSQLKQ [P11A-bS]
